The text below walks through data of the nanobody polyreactivity screen of Harvey et al. (2022).

A short description of the series: yeast display, Sf9 membrane polyspecificity reagent, FACS + sequencing; frameworks hold sequencing errors. In outline: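 Genes from sorted yeast were amplified by colony PCR, read by MiSeq 2 × 250 sequencing and filtered on CDR length. These cells carried a synthetic nanobody library in Saccharomyces cerevisiae BJ5465 and were sorted by FACS into low and high (top ~1%) gates on anti-HA and streptavidin fluorescence. Polyreactivity is labelled according to the gate of origin.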
As to “QVQLVESGGGLVQAGCSLRLSCAASGRIFTGNAMGWYRQAPGKERELVAAISRSGGRTYYADSVKGRFTISRDNAKNTVYLQMNSLKPEDTAVYYCAAAGYYHTYWGTMDYWGQGTQVTVSS”, the “polyreactivity (PSR sort gate)” value was “high polyreactivity”.
Turning to “QVQLVESGGGLVQAGCSLRLSCAASGRIFVAITMGRYRQAPGKERELVAAITRGTNTYYADSVKGRFTISRDNAKNTVDLQMNSLKPEDSAVYYCAARLPYNAIGYYYWGHGTQVTVSS”, the “polyreactivity (PSR sort gate)” value is “low polyreactivity”.
In the case of “QVQLVESGGGLVQAGCSLRLSCAASGRIFYSNVMGWYRQAPGKERELVAAISGRTGGTYYADSVKGRFTISRDTAKNTVYLQMNSLKPEDTAVYYCAARVIYYYGSGPYDYWGQGTQVTVSS”, the “polyreactivity (PSR sort gate)” value is “low polyreactivity”.
With “QVQLVESGGGLVQAGCSLRLSCAASGRTFAYYAMGWYRQAPGKERELVAAISSGGGSTYYADSVKGRFTISRDNAKNTVYLQMNSLKPEDTAVYYCAKERSYSRSGGTYYYWGQGTQVTVSS” the entry was “high polyreactivity”.
In the case of “QVQLVESGGGLVQAGCSLRLSCAASGRTFGGNAMGWYRQAPGKERELVAAISKSGGRTYYADSVKGRFTISRDNAKNTVYLQMNSLKPEDTAVYYCNKVLSVSQAGGFDYWGQGTQVTVSS”, the “polyreactivity (PSR sort gate)” value is listed as “high polyreactivity”.
For “QVQLVESGGGLVQAGCSLRLSCAASGRTFSTYAMGWYRQAPGKERELVAAITRRGGSTYYADSVKRRFTISRDNAKNTVYLQINSLKPEDTAVYYCETYADRPPRTPDISYVSNFDYWGQGTQVTVSS”, the “polyreactivity (PSR sort gate)” value is recorded as “low polyreactivity”.
Consider “QVQLVESGGGLVQAGCSLRLSCAASGSIFTINAMGWYREAPGKERELVAAISFGGGSTYYADSVKGRFTISRDNAKITGYLQMNSLKREDTAVYYCAAEDWWGYDYWGQGNQVTVSS”, for which the “polyreactivity (PSR sort gate)” value was “high polyreactivity”.
Regarding “QVQLVESGGGLVQAGCSLRLSCAASGSIFYRYAMGWYRQAPGKERELVAAISRSGGRTYYADSVKGRFTISRDNAKNTVYIQMNSLKPEDTAVYNCAAESTVGTDLGGDSWGQGTQVTVSS”, the “polyreactivity (PSR sort gate)” value is “high polyreactivity”.
“QVQLVESGGGLVQAGCSLRLSCAASGSIFYYYAMGWYRQAPGKERELVAAIRRSGSTTYADSVKGRFTISRDNAKNTVYLQMNSLKPEETAVYYCNVYGYGTEYDYWGQGTLVTVSS”: the “polyreactivity (PSR sort gate)” value is recorded as “high polyreactivity”.
Turning to “QVQLVESGGGLVQAGCSLRLSCAASGSNFGMYTMGWYRQAPGKESELVAAISGGGGSTYYADSVKGRFTISRDTAKNTVYVQMNSLKPEDSAVYYCAAVLDLSEWYDYWGQGTQVTVSS”, the “polyreactivity (PSR sort gate)” value is given as “low polyreactivity”.
Consider “QVQLVESGGGLVQAGCSLRLSCAASGSTFPYNSMGWYRQAPGKERELVAAITSSGRTNYADSVKGRFTISRDNAKNTVYLQMNSLKPEDTAVYYCAAARWYAHRVDYWGQGTQVTVSS”, for which the “polyreactivity (PSR sort gate)” value is recorded as “low polyreactivity”.
Take “QVQLVESGGGLVQAGCSLRLSCASSGGIFSWYAMGRYRQAPGKEREFVAAISWRGGRTYYADSVKGRFTISRDNAKNTVYLQMNSLKPEDTAVYYCAVANRAGEDDYWGQGSQVTVSS”: the “polyreactivity (PSR sort gate)” value was “high polyreactivity”.
As to “QVQLVESGGGLVQAGCSLRLSCSASGSIFRNNAMGWYRPAHGKERELVAAITSTGTGTYYADSLKGRFTISRDNAKNTVYLQMNSLKPEDTAVYYCSVDDDFEFVYWGQGTQVTVSS”, the “polyreactivity (PSR sort gate)” value is listed as “low polyreactivity”.
With “QVQLVESGGGLVQAGCSLRLSYAASGLTFRRNPLGWYRQAPGKERELVATITSVGSTNYADSVKGRFTISRDNAKNTVYLQMISLKPEDTAVYYCRTVTYGYWGQGTQVTVSS”, the “polyreactivity (PSR sort gate)” value is “high polyreactivity”.
Consider “QVQLVESGGGLVQAGCSLRLTCAASGSIFPYYAMGWYRQAPGKERELVAAISYSGGRTRYADSVKGRFTISRDNAKNTVYLQMNSLKPEHTAVYYCAVVDRHQPYGRQLDYWGQGTQVTVSS”, for which the “polyreactivity (PSR sort gate)” value is recorded as “low polyreactivity”.
Take “QVQLVESGGGLVQAGCSRRLSCSASGSIFRGNSMGWYRPAPGKERELVAAITGSGGNTYYADSVKGRFTISRDNAKNTVYLQMNSLKPEDTAFYYCIADGWNTYIGPRRYRYDYWGQGTQVTVSS”: the “polyreactivity (PSR sort gate)” value was “low polyreactivity”.
As for “QVQLVESGGGLVQAGCTLRLSCAASGSIAYNAMGWYRQAPGKERELVASIRASGGRTYYADSVKGRFTISRDNAKNSVYLQMNSLKPEDTAVYYCAAYHGSKPLHHKGYDYWGQGTQVSVSS”, the “polyreactivity (PSR sort gate)” value was “low polyreactivity”.
With “QVQLVESGGGLVQAGDSLRLSCAASGSTFTRNAMGWYRQAPGKERDLVASITRGGSTYADSVKGRFTISRDNAKNTVYLQMYSLKPEDTAVYYCAKSVTCWRGLWYTPRNYFWGQGSQVTVSS”, the “polyreactivity (PSR sort gate)” value is given as “high polyreactivity”.
On to “QVQLVESGGGLVQAGFSLRLSCAASGSIFDYYTMGCYRQAPGKERELVATIRSGDSTNYADSVKGRFTISRDNAKNTVYLQMNSLKPEDTAVYYFAADDGAYPTLYDYWGQGTQVTVSS”, for which the “polyreactivity (PSR sort gate)” value is “low polyreactivity”.
Consider “QVQLVESGGGLVQAGGCLRLSCAASGFTFWWYAMGWYRQAPGKERELVAAISSGGSTNYADSVKGRFTLSRDNAKNTVYLQMNSLQPEDTAVYYCARRLWYSDRYSARWQYDYWGQVTQVTVSS”, for which the “polyreactivity (PSR sort gate)” value was “high polyreactivity”.
With “QVQLVESGGGLVQAGGCLRLSCAASGNTFYGYAMGWYRQAPGKERELVASITLSGDSTYYADSVKGRFTISRDNAMNTVYLQMNSLKPEYTAVYYCAGVYTYPLGYYHYTYDYWGQGTQVTVSS” the entry was “low polyreactivity”; with “QVQLVESGGGLVQAGGCLRLSCAASGRIFYANTMGWYRQAPGIEWELVASMYGAVGTYADSVKGRFTISRDKAKNTVSLQMNSLKPEDTAVYYCNAYLTRPVEEYLWDGYYYWGQGTQVTVSA”, “low polyreactivity”.
As for “QVQLVESGGGLVQAGGCLRLSCAASGSIFFGYAMGWYRQAPGKERELVAAINGSVITSYADSVKGRFTISRDNAKNTVYLQMNSLKPEDTAYYCNTGSTWGAVIANYDHWGQGTQVTVSS”, the entry is “low polyreactivity”; as for “QVQLVESGGGLVQAGGCLRLSCAASGSTFEDYAMGWYRQATGKERALVAAINSGGSTYYADSVKGRFTFSRHNAKNTVYLQMNSQKPEDTAVYYCAARIYYWTYRYNYWGQGTQVTVSS”, “high polyreactivity”; as for “QVQLVESGGGLVQAGGCLRLSCAASGSTFLRNTMGWYRLAPGKERELVATISAGASNTYYADSVKGRFTISRDNAKNTDYLQKNSLTPEATAVYYCAARLLTWYYGIRYYWGQGTQVTVSS”, “high polyreactivity”.
As to “QVQLVESGGGLVQAGGCLRVSCAASGNICVIYAMGGDRKAPGKERELLAAINWNSGRTYYADSVKGRFTISRDNAKNTVYLQMNSLKPEDTAVYYCAARTWGFGYPEFGYWGQGTQVTVSS”, the “polyreactivity (PSR sort gate)” value is reported as “high polyreactivity”.
On to “QVQLVESGGGLVQAGGGLRLSCAASGITFVDYDMGWYRQAPGKERELDAAITTGSSTYYADSVKGRFTISRDNAKNTVYLQMNSLKPEDTAVYYCARDFEYDYYQQWSYGYWGQGTQVTVSS”, for which the “polyreactivity (PSR sort gate)” value is reported as “low polyreactivity”.
Regarding “QVQLVESGGGLVQAGGGLRLSCAASGSIFGSYAMGWYRQAPAKERELVAGITYRGSSTYYADSVKGRFTISRDNAKNTVYLQMTSLKPEDSAVYYCAADPVFDEYDYWGQGTQVTVSS”, the “polyreactivity (PSR sort gate)” value was “low polyreactivity”.
In the case of “QVQLVESGGGLVQAGGGLRLSCSASGYIFGYTAMGWYRQAPGKERELVAAISYSGGSTYYADSVKGRFTISRDNAKNTVYLQMNSLKPVDTAVYYCAAYRKGTWPGYLGVGYDYWGQGTQVTVSS”, the “polyreactivity (PSR sort gate)” value is listed as “high polyreactivity”.
For the sequence “QVQLVESGGGLVQAGGILRFSCAASGSTFGLNAMGWYRQAPGQERELVAAISWSGGTTYYADSVKGRFTISRDNAKNTVYLQMNSLTPEDTAVYYCAADVYSSWGYYEVYYWGQGTQVTVSS”, the “polyreactivity (PSR sort gate)” value is listed as “high polyreactivity”.
For “QVQLVESGGGLVQAGGILRISCAASGFIFYPYAMGWYRQAPGKERELVATIDGGGSTYYADSVKGRFTISRDNAKNTVYLQMNSLKPEDSAVYYCDASQWSNYDNWGQGNQVTVSS”, the “polyreactivity (PSR sort gate)” value was “low polyreactivity”.
With “QVQLVESGGGLVQAGGILRISCAASGSISSYYAMGWYRPAPGKERELVAAITSGGRTYFADSVKGRFTISRDNAKNTVYFQMNSLKQEDTAVYYCNARTARNPIKGRASDYWGQGTQVTVSS”, the “polyreactivity (PSR sort gate)” value is “high polyreactivity”.
As for “QVQLVESGGGLVQAGGILRLGCAASGSTFAWNAMGWYRPAPGKERELVATISRSGSTNYADSVKGRFTISRDNAKNTVYLQMNCLKPEVTAVYYCARDKRYYRQYYYHTRYYYWGQGTQVTVSS”, the entry is “high polyreactivity”; as for “QVQLVESGGGLVQAGGILRLICAASGRIFKLNALGWYRQAPGKERELDAAITFSGGSTYYADSVKGRFRISRDNVNYTVYLQMNSMKPEYTGVYYCNAEFSNVELYYWGQGTHVTVSS”, “low polyreactivity”; as for “QVQLVESGGGLVQAGGILRLSCAASGFIFQFNAMGWYRQAPGKEMEMDASISVSGGSTYYADSVKGRFTISRDNAKNTVYLQMNSLKPEDTAVYYCAATQRRYTYGHDYWGQGTQVTVSS”, “low polyreactivity”.
In the case of “QVQLVESGGGLVQAGGILRLSCAASGFTFGWNAMGWYRQAPGKERELVAAITSGGITNYADSVKGRFTISRDNAKNTVYLQMNSLKPEDTAVYYCNARPTSRRSWYYWKGYDYWGQGTQVTVSS”, the “polyreactivity (PSR sort gate)” value is recorded as “high polyreactivity”.
Turning to “QVQLVESGGGLVQAGGILRLSCAASGFTFNRNAMGWYRQAPGKERELVAAISWSGTSTYYADSVKGRFTISRDNAKTTVYLQMNSLKPEDTAVYYCAARVKGQWNTYDSWGQGTQVTVST”, the “polyreactivity (PSR sort gate)” value is on record as “high polyreactivity”.
With “QVQLVESGGGLVQAGGILRLSCAASGIIFSQYTMGWYRQAPGKESELVAAISYTGGRTYYADSVKGRFTISRDNAMNTVYLQMNSLKPEDTAVYYCAADFPIVWYEEYYWGQGTQVTVSS” the entry was “high polyreactivity”; with “QVQLVESGGGLVQAGGILRLSCAASGITFGRNAMGWYRQAPGKERELVAAITISGGGTYYADSVKGRFTISRDNAKNTVYLQMNSLKPEDTAVYYCAADRSTVWVHYPHAGGSWGHGTQVTVSS”, “high polyreactivity”; with “QVQLVESGGGLVQAGGILRLSCAASGLIFYYYAMGWYRQAPGKERELVAAIRTNYADSVKGRFTISRDNAKNTVYLQMNSLKPEDTAVYYCAAESSHSPTSAFDYWGQGTQVTVSS”, “low polyreactivity”.
“QVQLVESGGGLVQAGGILRLSCAASGLTFRDYAMGWYRQAPGKERELVAAISWNGSSTNYADSVKGRFTISRDNAKNTVYLQMNSLKPEDTSVYYCNAYYYYRRPLEGGYWGQGTQVTVSS”: the “polyreactivity (PSR sort gate)” value is “low polyreactivity”.
